*1 amine or outer side, *2 acyl side, *3 side chain or, on linkers, in order; H or OH if unused. Where no end group is shown, it is not given here. Side-chain parts run from the residue outwards. The star is where a group is joined. C18 diacid = O=C(O)CCCCCCCCCCCCCCCCC(=O)*; C16 diacid = O=C(O)CCCCCCCCCCCCCCC(=O)*; γGlu = O=C(O)[C@H](CCC(=O)[*:2])N[*:1]; AEEA = NCCOCCOCC(=O)O
T1: human GIP receptor (human, UniProt P48546 22-466)
T1 sequence (looked up): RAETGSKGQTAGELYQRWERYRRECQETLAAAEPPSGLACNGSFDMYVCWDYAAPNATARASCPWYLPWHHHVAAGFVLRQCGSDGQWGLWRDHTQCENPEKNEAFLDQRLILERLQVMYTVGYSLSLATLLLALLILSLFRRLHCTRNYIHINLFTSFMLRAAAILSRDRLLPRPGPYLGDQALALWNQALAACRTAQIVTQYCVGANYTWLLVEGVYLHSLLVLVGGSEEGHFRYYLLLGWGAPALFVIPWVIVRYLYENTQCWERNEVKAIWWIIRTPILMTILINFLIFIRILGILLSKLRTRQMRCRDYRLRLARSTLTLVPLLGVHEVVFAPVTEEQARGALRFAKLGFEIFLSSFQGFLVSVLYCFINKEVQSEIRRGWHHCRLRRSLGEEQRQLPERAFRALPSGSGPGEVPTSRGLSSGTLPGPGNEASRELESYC


Target: T1, human GIP receptor
Assay: cell-based or functional assay

Binder	CisBio cAMP agonism % Efficacy	CisBio cAMP antagonism % inhib	CisBio cAMP antagonism IC50	CisBio cAMP antagonism pIC50	DiscoveRx cAMP antagonism % inhib	DiscoveRx cAMP antagonism IC50	DiscoveRx cAMP antagonism log IC50	DiscoveRx cAMP agonism Emax
EGTFISDYSIAMDRIK([AEEA-γGlu-C18 diacid])QQDFVNWLLAQR-NH2 (not fully specified (residue 1)) [AT376]	0%	87%	6.81 nM	8.2	90%	19 nM	-7.7 log M	
EGTFISDYSIAMDRIK([AEEA-AEEA-AEEA-γGlu-C18 diacid])QQDFVNWLLAQR-NH2 (not fully specified (residue 1)) [AT378]	0%	90%	11.7 nM	7.9	92%	16 nM	-7.8 log M	
TFISDYSIALDRIKQQDFVNWLLAQR-NH2 (not fully specified (residue 14); printed as TFISDYSIALDRIKQQDFVNWLLAQR-(AEEAc +γ-Glu)-C16-diacid/K18) [AT234]	0%	66%	39.8 nM	7.4		16 nM	-7.8 log M	26
SGTFISDYSIAMDRIK([AEEA-AEEA-γGlu-C16 diacid])QQDFVNWLLAQR-NH2 (N-terminus assumed; SMILES CC[C@H](C)[C@H](NC(=O)[C@H](CO)NC(=O)[C@H](Cc1ccc(O)cc1)NC(=O)[C@H](CC(=O)O)NC(=O)[C@H](CO)NC(=O)[C@@H](NC(=O)[C@H](Cc1ccccc1)NC(=O)[C@@H](NC(=O)CNC(=O)[C@@H](N)CO)[C@@H](C)O)[C@@H](C)CC)C(=O)N[C@@H](C)C(=O)N[C@@H](CCSC)C(=O)N[C@@H](CC(=O)O)C(=O)N[C@@H](CCCNC(=N)N)C(=O)N[C@H](C(=O)N[C@@H](CCCCNC(=O)COCCOCCNC(=O)COCCOCCNC(=O)CC[C@H](NC(=O)CCCCCCCCCCCCCCC(=O)O)C(=O)O)C(=O)N[C@@H](CCC(N)=O)C(=O)N[C@@H](CCC(N)=O)C(=O)N[C@@H](CC(=O)O)C(=O)N[C@@H](Cc1ccccc1)C(=O)N[C@H](C(=O)N[C@@H](CC(N)=O)C(=O)N[C@@H](Cc1c[nH]c2ccccc12)C(=O)N[C@@H](CC(C)C)C(=O)N[C@@H](CC(C)C)C(=O)N[C@@H](C)C(=O)N[C@@H](CCC(N)=O)C(=O)N[C@@H](CCCNC(=N)N)C(N)=O)C(C)C)[C@@H](C)CC) [AT516]	0%	88%	27.1 nM	7.6	100%	31 nM	-7.5 log M	
EGTFISDYSIAMDRIK([AEEA-AEEA-γGlu-C18 diacid])QQDFVNWLLAQR-NH2 (not fully specified (residue 1)) [AT377]	0%	90%	18.5 nM	7.7	100%	19 nM	-7.7 log M	
EGTFISDYSIAMDRIK([AEEA-γGlu-C16 diacid])QQDFVNWLLAQR-NH2 (not fully specified (residue 1)) [AT373]	0%	91%	12.6 nM	7.9	94%	10 nM	-8 log M	
SGTFISDYSIAMDRIKQQDFVNWLLAQR (HELM PEPTIDE1{S.G.T.F.I.S.D.Y.S.I.A.M.D.R.I.K.Q.Q.D.F.V.N.W.L.L.A.Q.R}|PEPTIDE2{[O=C(O)CCCCCCCCCCCCCCC(=O)[*:2]].[gGlu]}$PEPTIDE1,PEPTIDE2,16:R3-2:R2$$$V2.0; N-terminus assumed; SMILES CC[C@H](C)[C@H](NC(=O)[C@H](CO)NC(=O)[C@H](Cc1ccc(O)cc1)NC(=O)[C@H](CC(=O)O)NC(=O)[C@H](CO)NC(=O)[C@@H](NC(=O)[C@H](Cc1ccccc1)NC(=O)[C@@H](NC(=O)CNC(=O)[C@@H](N)CO)[C@@H](C)O)[C@@H](C)CC)C(=O)N[C@@H](C)C(=O)N[C@@H](CCSC)C(=O)N[C@@H](CC(=O)O)C(=O)N[C@@H](CCCNC(=N)N)C(=O)N[C@H](C(=O)N[C@@H](CCCCNC(=O)CC[C@H](NC(=O)CCCCCCCCCCCCCCC(=O)O)C(=O)O)C(=O)N[C@@H](CCC(N)=O)C(=O)N[C@@H](CCC(N)=O)C(=O)N[C@@H](CC(=O)O)C(=O)N[C@@H](Cc1ccccc1)C(=O)N[C@H](C(=O)N[C@@H](CC(N)=O)C(=O)N[C@@H](Cc1c[nH]c2ccccc12)C(=O)N[C@@H](CC(C)C)C(=O)N[C@@H](CC(C)C)C(=O)N[C@@H](C)C(=O)N[C@@H](CCC(N)=O)C(=O)N[C@@H](CCCNC(=N)N)C(=O)O)C(C)C)[C@@H](C)CC) [AT265]	8%	73%	58.4 nM	7.2		33 nM	-7.5 log M	10
EGTFISDYSIAMDRIK([AEEA-AEEA-AEEA-γGlu-C16 diacid])QQDFVNWLLAQR-NH2 (not fully specified (residue 1)) [AT375]	6%	83%	23.3 nM	7.6	100%	22 nM	-7.7 log M	
EGTFISDYSIAMDRIK([AEEA-AEEA-γGlu-C16 diacid])QQDFVNWLLAQR-NH2 (not fully specified (residue 1)) [AT374]	0%	86%	17.1 nM	7.8	100%	12 nM	-7.9 log M	
TFISDYSIALDRIKQQDFVNWLLAQR (HELM PEPTIDE1{T.F.I.S.D.Y.S.I.A.L.D.R.I.K.Q.Q.D.F.V.N.W.L.L.A.Q.R.[am]}|PEPTIDE2{[O=C(O)CCCCCCCCCCCCCCC(=O)[*:2]].[gGlu]}$PEPTIDE1,PEPTIDE2,14:R3-2:R2$$$V2.0; N-terminus assumed; SMILES CC[C@H](C)[C@H](NC(=O)[C@H](CO)NC(=O)[C@H](Cc1ccc(O)cc1)NC(=O)[C@H](CC(=O)O)NC(=O)[C@H](CO)NC(=O)[C@@H](NC(=O)[C@H](Cc1ccccc1)NC(=O)[C@@H](N)[C@@H](C)O)[C@@H](C)CC)C(=O)N[C@@H](C)C(=O)N[C@@H](CC(C)C)C(=O)N[C@@H](CC(=O)O)C(=O)N[C@@H](CCCNC(=N)N)C(=O)N[C@H](C(=O)N[C@@H](CCCCNC(=O)CC[C@H](NC(=O)CCCCCCCCCCCCCCC(=O)O)C(=O)O)C(=O)N[C@@H](CCC(N)=O)C(=O)N[C@@H](CCC(N)=O)C(=O)N[C@@H](CC(=O)O)C(=O)N[C@@H](Cc1ccccc1)C(=O)N[C@H](C(=O)N[C@@H](CC(N)=O)C(=O)N[C@@H](Cc1c[nH]c2ccccc12)C(=O)N[C@@H](CC(C)C)C(=O)N[C@@H](CC(C)C)C(=O)N[C@@H](C)C(=O)N[C@@H](CCC(N)=O)C(=O)N[C@@H](CCCNC(=N)N)C(N)=O)C(C)C)[C@@H](C)CC) [AT233]	0%	70%	34.2 nM	7.5		32 nM	-7.5 log M	28
PGTFISDYSIAMDRIK([AEEA-AEEA-γGlu-C16 diacid])QQDFVNWLLAQR-NH2 (N-terminus assumed; SMILES CC[C@H](C)[C@H](NC(=O)[C@H](CO)NC(=O)[C@H](Cc1ccc(O)cc1)NC(=O)[C@H](CC(=O)O)NC(=O)[C@H](CO)NC(=O)[C@@H](NC(=O)[C@H](Cc1ccccc1)NC(=O)[C@@H](NC(=O)CNC(=O)[C@@H]1CCCN1)[C@@H](C)O)[C@@H](C)CC)C(=O)N[C@@H](C)C(=O)N[C@@H](CCSC)C(=O)N[C@@H](CC(=O)O)C(=O)N[C@@H](CCCNC(=N)N)C(=O)N[C@H](C(=O)N[C@@H](CCCCNC(=O)COCCOCCNC(=O)COCCOCCNC(=O)CC[C@H](NC(=O)CCCCCCCCCCCCCCC(=O)O)C(=O)O)C(=O)N[C@@H](CCC(N)=O)C(=O)N[C@@H](CCC(N)=O)C(=O)N[C@@H](CC(=O)O)C(=O)N[C@@H](Cc1ccccc1)C(=O)N[C@H](C(=O)N[C@@H](CC(N)=O)C(=O)N[C@@H](Cc1c[nH]c2ccccc12)C(=O)N[C@@H](CC(C)C)C(=O)N[C@@H](CC(C)C)C(=O)N[C@@H](C)C(=O)N[C@@H](CCC(N)=O)C(=O)N[C@@H](CCCNC(=N)N)C(N)=O)C(C)C)[C@@H](C)CC) [AT518]	0%	71%	85.8 nM	7.1	100%	346 nM	-6.5 log M	5

From US20220025010A1 (ANTAG THERAPEUTICS, published 2022)
